Source: the supplement of paper PMC10201428
± gives the standard deviation of the averaged measurements.

These sequences were tested on VchCAST RNA-guided transposition machinery (E. coli BL21(DE3) host, lacZ target) (assay: relative integration efficiency (T-RL orientation) vs wild-type transposon end (log2 (normalized fold change)); transposon end mutated: right end (5 bp flank + 75 bp right end); higher = more efficient transposition).
How it was run: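 Co-transformation of E. coli BL21(DE3) combined a pUC57 mini-transposon donor, holding barcoded pools of 1549 left-end or 1849 right-end variants, with a T7-driven plasmid encoding a CRISPR array, tniQ-cas8-cas7-cas6 and tnsA-tnsB-tnsC. After plating with 0.1 mM IPTG at 37°C for 18 h, input plasmids and genomic integration junctions were PCR-amplified and Illumina-sequenced across two biological output replicates, with four reference barcodes. Relative integration efficiency is the normalised, log-transformed output/input barcode fold change.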

| Sequence | relative integration efficiency (log2) |
| --- | --- |
| ACATTTGTTGATACAACCATAAAATGATAATTACACCCATACCGGTCGCCGGCGACACAAACGCCCGGTCGCGGTAAGAGGATCATAGTCAGACCAACATTGCTACGACCCGTATTCGCACCGACAC | -2.6 ± 0.11 |
| ACATTTGTTGATACAACCATAAAATGATAATTAATAATTATTTATAATCAGCAACTTAACCACAACACCCATAAATTGATAATTATCACACCCATAAATTGATATTGCCTCTGATCATAGTCAGACC | -3.94 ± 1.1 |
| ACATTTGTGGATACAACCATAAAATGATAATTACACCCATAAATTCATCATTATCACACCCAATTTAACTATAACGCTCTGATCATAGTCAGACCAACATTGCTACGACCCGTATTCGCACCGACAC | -2.03 ± 0.49 |
| ACATTTGTTGATACAACCATAAAAGGATAATTACACCCATCAATTGATAATTATCCCACCCCATTTAACTATAACGCTCTGATCATAGTCAGACCAACATTGCTACGACCCGTATTCGCACCGACAC | -1.79 ± 0.17 |
| ACATTTGTTGATACAACCATAAGTTGATATTTTCACCCATAAATTGATAATTATCACAACCATAAGTTGATATTTTCTCTGATCATAGTCAGACCAACATTGCTACGACCCGTATTCGCACCGACAC | -0.215 ± 0.056 |
| ACATTTGTTGATACAACCATAAAATGATAATTACACCCATAAATTGATAATTATCAACACCCATAAATTGATATTGCCTCTGATCATAGTCAGACCAACATTGCTACGACCCGTATTCGCACCGACA | -0.35 ± 0.052 |
| ACATTTGTTGATACAACCATAAGTTGATATTTTCACCCATAAATTGATAATTATCACAACCATATATTGATATCTCCTCTGATCATAGTCAGACCAACATTGCTACGACCCGTATTCGCACCGACAC | -0.64 ± 0.15 |
| ACATTTGTTGATACAACCATAAAATGATAATTACACCCATAAATTGATATTGCTCACAACCATAAAGTGATATTTACTCTGATCATAGTCAGACCAACATTGCTACGACCCGTATTCGCACCGACAC | -0.424 ± 0.093 |
| ACATTTGTCGATACAACCATAAAATGATAATTACACCCATAAATTCATCATTATCACCCCCAATTTAACTATAACGCTCTGATCATAGTCAGACCAACATTGCTACGACCCGTATTCGCACCGACAC | -1.99 ± 0.23 |
| ACATTTGTTGATACAACCATTAAATGGTAATTCCACCCAAAAATTGATAATTATCACACCCAATTTAACTATAACGCTCTGATCATAGTCAGACCAACATTGCTACGACCCGTATTCGCACCGACAC | -2.14 ± 0.21 |
| ACATTTGTTGATACAACCATAAAATGATAATTACACCCATAAATTGATAATTTACACACCCATAAATTGATATTGCCTCTGATCATAGTCAGACCAACATTGCTACGACCCGTATTCGCACCGACAC | -0.0701 ± 0.25 |
| ACATTTGTTGATACAACCATAAAATGATAATTACCCCCATCAATTGATAATTATCACACCCCATTTAACTATAACGCTCTGATCATAGTCAGACCAACATTGCTACGACCCGTATTCGCACCGACAC | -2.27 ± 0.37 |
| ACATTTGTCGATACAACCCTAAAATGATAATTACACCCATAAATTGATAATTATCACCCCCAATTTAACTATAACGCTCTGATCATAGTCAGACCAACATTGCTACGACCCGTATTCGCACCGACAC | -2.33 ± 0.4 |
| ACATTTGTTAAAAAAACCATACGTTGATTTTACGAAACCATACGCTGAAATAATCACACCCATAAATTGATATTGCCTCTGATCATAGTCAGACCAACATTGCTACGACCCGTATTCGCACCGACAC | -5.94 ± 0.086 |
| ACATTTGTTGATACAAGGATAAAATGATAATTACACCCATAAATTGATAATTATCACACCCATAAATTGATATTGCCTCTGATCATAGTCAGACCAACATTGCTACGACCCGTATTCGCACCGACAC | -0.223 ± 0.044 |
| ACATTTGTTGATACAACCATAAAATCATAATTACCCCCATAAATTGATAATTATCCCACCCCATTTAACTATAACGCTCTGATCATAGTCAGACCAACATTGCTACGACCCGTATTCGCACCGACAC | -3.28 ± 0.32 |

| Sequence | relative integration efficiency (log2) |
| --- | --- |
| ACATTTGTTGATACAACCATAAAATGATAATTACACCCATAAATTGATAATTATCACACCCATAAATTGATATTGGGAGTGATCATAGTCAGACCAACATTGCTACGACCCGTATTCGCACCGACAC | -0.111 ± 0.04 |
| ACATTTGTTGATACAACCATAAAATGATAATTAATAATTATTTATAATCAGCAACTTACACCCATAAATTGATAATTATCACACCCATAAATTGATATTGCCTCTGATCATAGTCAGACCAACATTG | -5.34 ± 0.86 |
| ACATTTGTTGATACAACCATATATTGATATCTCCAACCATAAAGTGATATTTATCACAACCATAAGTTGATATTTTCTCTGATCATAGTCAGACCAACATTGCTACGACCCGTATTCGCACCGACAC | 0.261 ± 0.2 |
| ACATTTGTTGATACAACCATAAAATCATCATTACCCCCATAAATTGATAATTATCACACCCAATTTAACTATAACGCTCTGATCATAGTCAGACCAACATTGCTACGACCCGTATTCGCACCGACAC | -4.04 ± 0.25 |
| ACATTTGTTGATACAACCATAAAATGATAATTAATAATTATTTATAATCCACCCATAAATTGATAATTATCAACAAACGCCCGGTCGCGGTACTCTGATCATAGTCAGACCAACATTGCTACGACCC | -2.37 ± 0.16 |
| ACATTTGTTGATACACCCATAAATTGATATTGCCACCCATAAATTGATATTGCTCACAACCATAAAGTGATATTTACTCTGATCATAGTCAGACCAACATTGCTACGACCCGTATTCGCACCGACAC | -0.811 ± 0.21 |
| ACATTGGTGGATACAACCATAAAATGATAATTACACCCATAAATTCATAATTATCACACCCAATTTAACTATAACGCTCTGATCATAGTCAGACCAACATTGCTACGACCCGTATTCGCACCGACAC | -6.19 ± 0.92 |
| ACATTTGTTGATACAACCATAAAATGATAATTCCACCCATACATTGATAATTATCACACCCAATTTAACTATAACGCTCTGATCATAGTCAGACCAACATTGCTACGACCCGTATTCGCACCGACAC | -2.42 ± 0.38 |
| ACATTTGTTGATACAACCATAAAATGATTATTACACCCATTAATTGATAATTATCACACCCAATTTAACTATAACGCTCTGATCATAGTCAGACCAACATTGCTACGACCCGTATTCGCACCGACAC | -1.4 ± 0.34 |
| ACATTTGTTCATCCAACCATAAAATGATAATTACACCCATAAATTCATAATTATCACACCCAATTTAACTATAACGCTCTGATCATAGTCAGACCAACATTGCTACGACCCGTATTCGCACCGACAC | -2.84 ± 0.39 |
| ACATTTGTTGATACACCCATAAATTGATATTGCCACCCATAAATTGATAATTATCACAACCATATATTGATATCTCCTCTGATCATAGTCAGACCAACATTGCTACGACCCGTATTCGCACCGACAC | -1.14 ± 0.14 |
| ACATTTGTTGATACAACCATAAAATGATAATTACACCCATAAATTGATTTTTATCACACCCATAAATTGATATTGCCTCTGATCATAGTCAGACCAACATTGCTACGACCCGTATTCGCACCGACAC | -0.629 ± 0.28 |
| ACATTTGTTGATACAACCATAAAATGATAATTACACCCATAAATTGATAATTATCACACCCATAAATTGATATTGCCTCTGACTTAAACAAAATATATCTTGCCCGCCTTACAAATAGCACCGACAC | 0.417 ± 0.32 |
| ACATTTGTCGATACAACCCTAAAATGATAATTACACCCATAAATGGATAATTATCACCCCCAATTTAACTATAACGCTCTGATCATAGTCAGACCAACATTGCTACGACCCGTATTCGCACCGACAC | -3.44 ± 0.12 |
| ACATTTGTTGATACAACCATAAAATGTATTTTACACCCATAAATTGATAATTATCACACCCATAAATTGATATTGCCTCTGATCATAGTCAGACCAACATTGCTACGACCCGTATTCGCACCGACAC | -0.938 ± 0.035 |
| ACATTTGTTGATACAACCATAAAATGATAATTACACCCATAAATGTATAATTATCACACCCATAAATTGATATTGCCTCTGATCATAGTCAGACCAACATTGCTACGACCCGTATTCGCACCGACAC | -0.553 ± 0.026 |
